B1: COX4I1 (parent)
chain: FDKEWVAKQTKRMLDMKVNPIQGL
B2: LOXL2 (parent)
chain: YVEVKEGKTWKQICDKHWTAKNSR

Variants of: B1
Experiment: protein stability index of a GFP-peptide fusion (GPS, HEK-293T) (PSI 1-6); higher = more stable
Conditions: c terminus: a fixed tail appended
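Note: lentivirally expressed fusions sorted by FACS into six bins by GFP to DsRed ratio, PSI derived from sequencing read proportions per bin multiplied by bin number.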

Protein stability index: each site, then its substitutions
T10: W 1.82 | S 1.08
V18: C 1.88
G23: E 1.72 | M 1.76 | N 1.8
R12: F 2.17
D2: Y 1.76 | N 2.57 | M 1.93 | L 1.09 | K 1.62
Q9: P 2 | M 2.54 | L 2.08 | E 2.26 | Y 2.14 | D 2.2 | V 1.46
P20: R 1.68 | W 2.4 | K 1.55 | T 2.38
Q22: V 2.58 | P 1.73 | R 1.89
N19: S 1.97 | P 2.32 | E 1.9 | Q 1.64 | D 1.79 | W 1.38 | R 1.71 | K 1.92
K8: V 1.84 | Y 2.59 | T 1.48 | S 1.75
V6: N 1.79 | W 2.67
K17: A 1.96 | G 1.51 | I 2.3
E4: N 1.69 | W 1.66 | Q 1.53 | R 1.84 | I 1.47 | P 1.66 | F 1.63
K11: V 2.58 | D 1.54 | F 1.97 | M 1.9
M13: E 2.06 | W 1.56 | H 1.43
D15: M 3.02 | P 1.84 | I 1.76 | C 1.66 | T 1.84 | K 1.89 | N 1.58
M16: K 1.5 | R 1.72
W5: E 3.6 | V 4.17 | T 2.87 | N 3.86 | P 3.63 | G 3.92 | L 3
L14: E 1.43 | P 1.65 | M 1.47 | Q 1.23 | G 1.72 | R 1.82 | S 1.54 | V 1.41
L24: P 2.08 | G 2.86 | A 1.83 | Y 1.59
A7: S 1.11 | Q 1.84 | Y 1.71 | V 1.18 | P 2.05 | M 1.81
F1: S 3.34 | K 3.57 | N 3.79 | V 2.77
K3: R 1.66 | H 1.52
I21: G 1.75 | M 2.63

Variants of: B2
Experiment: as above
Conditions: c terminus: a fixed tail appended

Protein stability index of substitutions, site by site:
H17: C 1.56 | S 1.82 | V 3.44 | L 2.81 | A 3 | Q 1.53 | R 3.35 | M 2.41 | P 3.06 | F 3.2 | T 1.97 | G 3.27 | I 2.14 | D 1.84 | E 2.3 | K 2.98 | Y 3.47 | N 2.89
Q12: Y 2.07 | E 1.58 | L 2.39 | C 1.58 | T 2.43 | I 3.16 | A 1.56 | K 2.63 | R 3.12 | G 2.63 | P 2.31 | M 2.64 | N 2.61 | D 2.02 | W 2.42 | F 2.46 | V 1.48 | H 3.06
T19: P 2.11 | H 1.78 | K 1.87 | A 1.45 | V 2.26 | S 1.72 | N 2.95 | F 2.16 | C 2.75 | R 1.77 | L 1.39 | E 2.15 | Y 2.29 | M 1.99 | W 2.64 | D 2.34 | G 2.56 | Q 3.17
K21: L 1.95 | D 2.34 | G 2.14 | I 1.68 | A 2.3 | W 1.96 | N 2.15 | M 2.13 | T 2.5 | V 2.03 | Y 2.14 | H 1.85 | E 3.16 | P 2.67 | S 1.99 | F 3.06 | R 3.06
W18: L 2.19 | S 2.05 | K 2.11 | P 1.94 | A 2.76 | V 2.66 | Y 1.56 | M 2.46 | F 2.54 | G 2 | E 2.52 | C 2.54 | D 3.01 | I 1.96 | Q 1.84 | H 3.04 | T 1.94 | N 2.58 | R 1.5
K11: Y 4.35
A20: L 2.16 | D 2.59 | G 1.75 | F 1.9 | R 2.71 | I 1.99 | T 2.03 | S 2.73 | K 2.25 | Y 2.27 | M 2.35 | P 1.67 | C 2.46 | E 1.98 | Q 2.54 | V 2.11 | H 2.07
C14: Q 1.74 | A 1.77 | D 2.4 | G 2.31 | K 1.45 | Y 1.93 | H 4.51 | T 2.52 | N 1.99 | V 1.93 | W 4.18 | S 1.75 | E 2.5 | M 2.98 | F 2.07 | L 1.8 | P 1.98 | I 2.16 | R 2.33
N22: K 3.05 | V 2.79 | S 1.92 | W 3.39 | D 2.42 | C 1.97 | F 2.29 | I 2.8 | E 2.25 | A 3.24 | P 1.89 | L 1.78 | R 1.8 | Y 2.23 | G 2.13 | T 2.54 | M 2.35 | H 2.99 | Q 1.82
R24: V 2.2 | Q 2.33 | G 1.53 | T 3.49 | Y 3.45 | C 2.72 | I 1.74 | E 2.33 | S 3.24 | M 2.09 | F 2.94 | N 2.48 | H 3.07 | L 2.46 | A 2.42 | D 1.91 | P 1.69 | K 2.76 | W 1.79
D15: L 2.62 | Q 2.56 | G 2.64 | V 2.49 | M 2.05 | A 2.96 | F 2.12 | I 1.83 | T 2.26 | S 2.56 | N 2.27 | Y 2.13 | K 2.94 | P 1.76 | R 1.8 | C 1.72 | W 2.6 | H 2.49 | E 3.34
S23: G 1.83 | C 2.73 | N 1.71 | A 2.97 | M 1.97 | P 1.94 | V 2.15 | K 2.88 | D 2.41 | L 2.42 | R 2.09 | F 1.19 | Y 2.64 | H 2 | I 2.82 | T 2.33 | E 2.17
I13: S 2.38 | P 3.38 | C 2.6 | R 2.59 | E 2.33 | D 3.54 | T 2.68 | Y 1.6 | Q 2.5 | L 1.4 | K 2.81 | A 2.73 | H 2.42 | M 2.19 | W 2.25 | V 2.44 | N 1.37
K16: R 3.43 | F 2.02 | Q 2.24 | A 2.08 | V 2.46 | D 3.38 | M 2.3 | Y 2.82 | P 1.95 | I 2.32 | L 2.42 | W 2.44 | G 3.14 | S 3.34 | N 1.93 | E 1.19 | H 2.83
